Where two headings read alike, the source gives them in different places. Starred links: 1 amine or outer side, 2 acyl side, 3 side chain; linkers in the order of their positions; H or OH if unused. Non-standard residues stand in square brackets, D forms with d. Residues, ends and D or L forms follow the SMILES beside them. *: point of attachment. Benzoyl(4-SiFtBu2) = CC(C)(C)[Si](F)(c1ccc(C(=O)*)cc1)C(C)(C)C; X1 = CC(C)(C)[Si](F)(c1ccc(C[N+](C)(C)CC(=O)*)cc1)C(C)(C)C; DOTA = O=C(O)CN1CCN(CC(=O)O)CCN(CC(=O)*)CCN(CC(=O)O)CC1; d(γGlu) = O=C(O)[C@@H](CCC(=O)[*:2])N[*:1]; 1Nal = N[C@@H](Cc1cccc2ccccc12)C(=O)O; Hyp = O=C(O)[C@@H]1C[C@@H](O)CN1; PEG5 = NCCOCCOCCOCCOCCOCCC(=O)O; NMeNle = CCCC[C@H](NC)C(=O)O; PEG4 = NCCOCCOCCOCCOCCC(=O)O; dDap = NC[C@@H](N)C(=O)O
Legend:
CCK-2R [1] = molecular target: T1, CCK-2R (Rattus norvegicus, UniProt P30553); assay: Determination of IC50: CCK-2R affinity on AR4-2J cells, competition with [^177Lu]Lu-DOTA-PP-F11N; assay type: binding; settings: AR4-2J cells
T1 construct: The CCK-2R expressing rat pancreatic tumor cells AR4-2J; host or cells: AR4-2J rat pancreatic tumor cells
T1 sequence (P30553 1-452): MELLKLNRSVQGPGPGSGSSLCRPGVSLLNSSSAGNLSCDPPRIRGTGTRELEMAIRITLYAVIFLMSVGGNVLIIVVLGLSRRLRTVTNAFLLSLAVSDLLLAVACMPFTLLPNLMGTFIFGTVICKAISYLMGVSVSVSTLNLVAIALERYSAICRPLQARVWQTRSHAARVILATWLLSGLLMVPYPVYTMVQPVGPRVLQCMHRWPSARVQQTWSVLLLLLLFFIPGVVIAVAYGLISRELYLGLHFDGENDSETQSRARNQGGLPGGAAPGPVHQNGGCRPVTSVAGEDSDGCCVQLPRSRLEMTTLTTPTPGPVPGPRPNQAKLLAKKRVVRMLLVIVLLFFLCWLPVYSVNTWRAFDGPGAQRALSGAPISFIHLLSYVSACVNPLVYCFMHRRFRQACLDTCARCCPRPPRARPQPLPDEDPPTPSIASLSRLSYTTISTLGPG
In short: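 Competitive displacement of 0.3 pmol/well [177Lu]Lu-DOTA-PP-F11N by compounds (10^-10 to 10^-4 M) on AR4-2J cells in BSA-supplemented medium, 3 h at 37 °C. Free label was collected from medium plus PBS rinse, and cell-bound label was recovered with 1 M NaOH, both measured by γ-counter. Each IC50 was determined twice, in triplicate.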

[2] = n-Octanol-PBS distribution coefficient (logD7.4); assay type: physicochemical; settings: for logD7.4 (n ≥ 5), ^67Ga-labeled: pH = 7.4, ^67Ga-labeled; for logD7.4 (n ≥ 5), ^177Lu-labeled: pH = 7.4, ^177Lu-labeled
Method: Approximately 1 MBq of the labeled tracer was dissolved in 1 mL of a 1/1 mixture (v/v) of phosphate buffered saline (PBS, pH = 7.4) and n-octanol in an Eppendorf tube (1.5 mL). After vigorous mixing of the suspension for 3 min at rt, the vial was centrifuged at 9,000 rpm for 5 min (Biofuge 15, Heraeus Sepatech, Osterode, Germany) and 200 µL aliquots of both layers were measured in a γ-counter. The experiment was repeated at least five times.

[3] = molecular target: T2, Human serum albumin (HSA) (Homo sapiens, UniProt P02768); assay: Determination of HSA binding on a Chiralpak HSA column; assay type: in vitro ADME
T2 construct: purchased Daicel, Tokyo, Japan H13H-2433
T2 sequence (P02768 25-609): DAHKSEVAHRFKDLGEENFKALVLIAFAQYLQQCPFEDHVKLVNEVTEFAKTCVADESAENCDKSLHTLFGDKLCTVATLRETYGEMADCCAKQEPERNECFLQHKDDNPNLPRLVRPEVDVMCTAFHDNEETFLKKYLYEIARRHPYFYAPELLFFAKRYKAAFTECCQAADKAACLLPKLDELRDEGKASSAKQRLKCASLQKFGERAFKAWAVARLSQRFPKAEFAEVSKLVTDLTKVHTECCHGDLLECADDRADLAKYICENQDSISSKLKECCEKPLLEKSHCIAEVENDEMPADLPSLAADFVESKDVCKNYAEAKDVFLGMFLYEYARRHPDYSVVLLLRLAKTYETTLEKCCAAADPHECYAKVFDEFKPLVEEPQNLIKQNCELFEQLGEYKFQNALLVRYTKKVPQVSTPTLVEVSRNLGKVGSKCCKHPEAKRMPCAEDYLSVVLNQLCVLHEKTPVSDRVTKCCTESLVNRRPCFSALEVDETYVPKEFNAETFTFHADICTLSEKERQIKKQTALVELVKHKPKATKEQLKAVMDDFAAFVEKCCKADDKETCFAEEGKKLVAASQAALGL
Method: Human serum albumin (HSA) binding of the CCK-2R-targeted compounds was determined as reported by Valko et al., using a Chiralpak HSA column (50 x 3 mm, 5 µm, H13H-2433, Daicel, Tokyo, Japan) at a constant flow rate of 0.5 mL/min at rt. Therefore, an aq. solution of NH4OAc (pH = 6.9, 50 mM) as mobile phase A and isopropanol as mobile phase B were freshly prepared. In order to calibrate the column prior to the experiments, the retention times of nine reference substances with a HSA binding in the range of 13 to 99% were determined using a gradient of 100% A (0 to 3 min), followed by 80% A (3 to 40 min). Furthermore, all substances tested, were dissolved in a mixture (1/1, v/v) of A and B reaching a final concentration of 0.5 mg/mL. The HSA binding of all rhCCK ligands tested, was determined using the same gradient as for the calibration probes. The non-linear regression of the calibration experiments and the CCK-2R ligands (Fig. 29) was established using the OriginPro 2016G software (Northampton, United States).

[4] = Biodistribution in AR4-2J tumor-bearing CB17-SCID mice; assay type: in vivo; settings: female, CB17-SCID, mouse, in vivo, iv, 100 pmol, total radioactivity
Method: All animal experiments were conducted in accordance with general animal welfare regulations in Germany (German animal protection act, in the edition of the announcement, dated May 18th, 2006, as amended by Article 280 of June 19th 2020, approval no. ROB-55.2-1-2532.Vet_02-18-109 by the General Administration of Upper Bavaria) and the institutional guidelines for the care and use of animals. CB17-SCID mice of both genders (Charles River Laboratories International Inc., Sulzfeld, Germany) were let to acclimate at the in-house animal facility at least for one week before inoculation was performed. To establish tumor xenografts, AR4-2J cells (5.0 × 10^6 cells per 200 µL) were suspended in a 1/1 mixture (v/v) of Dulbecco modified Eagle medium / Nutrition Mixture F-12 with Glutamax-I (1/1) and Cultrex® Basement Membrane Matrix Type 3 (Trevigen, Gaithersburg, MD, USA) and inoculated subcutaneously onto the right shoulder of 6-10 weeks old CB17-SCID mice (Charles River, Sulzfeld, Germany). Mice were used for experiments when tumors had grown to a volume of 150-300 mm^3 (1-2 weeks after inoculation). Exclusion criteria for animals from an experiment were either a weight loss higher than 20%, a tumor size above 1,500 mm^3, an ulceration of the tumor, a respiratory distress or a change of behavior. None of these criteria applied to any animal from the experiment. Neither randomization nor blinding was applied in the allocation of the experiments. Health status is SPF according to FELASA.
Approximately 1-5 MBq (100 pmol) of the radiolabeled minigastrin analogues were injected into the tail vein of AR4-2J tumor-bearing female CB17-SCID mice and sacrificed at 1 to 24 h post injection (n = 4-5). Selected organs were removed, weighted and measured in a γ-counter.

CCK-2R [5] = assay: Competition studies in AR4-2J tumor-bearing CB17-SCID mice; assay type: in vivo; settings: co-administration of excess unlabeled competitor (40 nmol), 24 h p.i.
Method: For competition studies, the radiolabeled compound (approx. 1-5 MBq, 100 pmol) was co-injected with [^natLu]Lu-DOTA-MGS5 (40 nmol) into the tail vein of AR4-2J tumor-bearing CB17-SCID mice and sacrificed at 1 to 24 h post injection (n = 2). Selected organs were removed, weighted and measured in a γ-counter.

[6] = ^natCu-labeled, read-out: IC50 [nM] (n = 3), ^natCu-labeled
[7] = ^natGa-labeled, read-out: IC50 [nM] (n = 3), ^natGa-labeled
[8] = ^natLu-labeled, read-out: IC50 [nM] (n = 3), ^natLu-labeled
[9] = Tab. 8, metal not stated (Fig. 18: ^natLu)

| IC50 (CCK-2R [1]; [6]) [nM] | IC50 (CCK-2R [1]; [7]) [nM] | SMILES | IC50 (CCK-2R [1]; [8]) [nM] | logD7.4 (n ≥ 5), ^177Lu-labeled [2] | HSA binding [%] [3] [%] | HSA binding [%], ^natCu-labeled [3] [%] | HSA binding [%], ^natGa-labeled [3] [%] | HSA binding [%], ^natLu-labeled [3] [%] | tissue to tissue ratio at 24 h [4] | tissue uptake at 24 h [4] [%ID/g] | activity levels in stomach and tumor in competition studies (CCK-2R specificity) (CCK-2R [5]) | HSA binding [%] [3, 9] [%] | also measured |
| --- | --- | --- | --- | --- | --- | --- | --- | --- | --- | --- | --- | --- | --- |
| 4.2 ± 0.5 | 5 ± 0.5 | CCCC[C@@H](C(=O)N[C@@H](CC(=O)O)C(=O)N[C@@H](Cc1cccc2ccccc12)C(N)=O)N(C)C(=O)[C@H](Cc1c[nH]c2ccccc12)NC(=O)CCOCCOCCOCCOCCNC(=O)CC[C@@H](NC(=O)CN1CCN(CC(=O)O)CCN(CC(=O)O)CCN(CC(=O)O)CC1)C(=O)O [DOTA-CCK-66, DOTA-γ-glu-(PEG)3-Trp-(N-Me)Nle-Asp-1-Nal-NH2] ({DOTA-d(γGlu)-PEG4}-W[NMeNle]D[1Nal]-NH2) | 5.1 ± 0.5 | −2.60 ± 0.07 | 61.5 | 61.5 | 53.8 | 69.1 | 2010 ± 469 | 8.56 ± 1.08 | significantly decreased activity levels in both stomach and tumor |  | logD7.4 (n ≥ 5), ^64Cu-labeled ([2]; pH = 7.4, ^64Cu-labeled): −2.64 ± 0.04; logD7.4 (n ≥ 5), ^67Ga-labeled [2]: −3.01 ± 0.07; logD7.4 (n ≥ 5), ^67Ga-labeled ([2]; listed as [^67Ga]Ga-DOTA-CCK-66): < -3 |
| 3.9 ± 1 | 3.6 ± 0.4 | CCCC[C@@H](C(=O)N[C@@H](CC(=O)O)C(=O)N[C@@H](Cc1cccc2ccccc12)C(N)=O)N(C)C(=O)[C@H](Cc1c[nH]c2ccccc12)NC(=O)CNC(=O)[C@H](Cc1ccc(O)cc1)NC(=O)[C@H](C)NC(=O)[C@@H](CCC(=O)O)NC(=O)CN1CCN(CC(=O)O)CCN(CC(=O)O)CCN(CC(=O)O)CC1 [DOTA-MGS5, DOTA-glu^6-Ala^7-Tyr^8-Gly^9-Trp^10-(N-Me)Nle^11-Asp^12-1-Nal^13-NH2, reference compound] |  |  | 87.6 | 87.6 | 82.0 | 91.9 | 1480 ± 329 | 11 ± 1.15 |  |  |  |
|  |  | CCCC[C@@H](C(=O)N[C@@H](CC(=O)O)C(=O)N[C@@H](Cc1cccc2ccccc12)C(N)=O)N(C)C(=O)[C@H](Cc1c[nH]c2ccccc12)NC(=O)CCOCCOCCOCCOCCNC(=O)CC[C@@H](NC(=O)[C@@H]1C[C@@H](O)CN1C(=O)[C@@H]1C[C@@H](O)CN1C(=O)[C@@H]1C[C@@H](O)CN1C(=O)[C@@H]1C[C@@H](O)CN1C(=O)[C@@H]1C[C@@H](O)CN1C(=O)[C@@H]1C[C@@H](O)CN1C(=O)[C@@H]1C[C@@H](O)CN1C(=O)[C@@H]1C[C@@H](O)CN1C(=O)CC[C@@H](NC(=O)[C@@H](CNC(=O)c1ccc([Si](F)(C(C)(C)C)C(C)(C)C)cc1)NC(=O)CN1CCN(CC(=O)O)CCN(CC(=O)O)CCN(CC(=O)O)CC1)C(=O)O)C(=O)O [DOTA-rhCCK-86, DOTA-dap(SiFA)-γ-glu-(Hyp)8-γ-glu-(PEG)3-Trp-(N-Me)Nle-Asp-1-Nal-NH2] ({DOTA}-[dDap](Benzoyl(4-SiFtBu2))[d(γGlu)][Hyp][Hyp][Hyp][Hyp][Hyp][Hyp][Hyp][Hyp][d(γGlu)][PEG4]W[NMeNle]D[1Nal]-NH2) |  | −1.86 ± 0.06 |  |  |  |  |  |  |  | 88.1 | IC50 (CCK-2R [1]; read-out: IC50 [nM] (n = 3), ^natLu-labeled, ^natLu-labeled): 10 ± 1.4 nM |
|  |  | CCCC[C@@H](C(=O)N[C@@H](CC(=O)O)C(=O)N[C@@H](Cc1cccc2ccccc12)C(N)=O)N(C)C(=O)[C@H](Cc1c[nH]c2ccccc12)NC(=O)CCOCCOCCOCCOCCNC(=O)CC[C@@H](NC(=O)CCOCCOCCOCCOCCOCCNC(=O)[C@@H](CNC(=O)C[N+](C)(C)Cc1ccc([Si](F)(C(C)(C)C)C(C)(C)C)cc1)NC(=O)CN1CCN(CC(=O)O)CCN(CC(=O)O)CCN(CC(=O)O)CC1)C(=O)O [DOTA-rhCCK-90, DOTA-dap(SiFAlin)-(PEG)4-γ-glu-(PEG)3-Trp-(N-Me)Nle-Asp-1-Nal-NH2] ({DOTA}-[dDap](X1)[PEG5][d(γGlu)][PEG4]W[NMeNle]D[1Nal]-NH2) | 9.85 ± 1 | −0.76 ± 0.09 |  |  |  |  |  |  |  | 94.5 |  |
|  |  | CCCC[C@@H](C(=O)N[C@@H](CC(=O)O)C(=O)N[C@@H](Cc1cccc2ccccc12)C(N)=O)N(C)C(=O)[C@H](Cc1c[nH]c2ccccc12)NC(=O)CCOCCOCCOCCOCCNC(=O)CC[C@@H](NC(=O)CCOCCOCCOCCOCCOCCNC(=O)CC[C@@H](NC(=O)[C@@H](CNC(=O)C[N+](C)(C)Cc1ccc([Si](F)(C(C)(C)C)C(C)(C)C)cc1)NC(=O)CN1CCN(CC(=O)O)CCN(CC(=O)O)CCN(CC(=O)O)CC1)C(=O)O)C(=O)O [DOTA-rhCCK-91, DOTA-dap(SiFAlin)-γ-glu-(PEG)4-γ-glu-(PEG)3-Trp-(N-Me)Nle-Asp-1-Nal-NH2] | 8.56 ± 0.7 | −1.66 ± 0.08 |  |  |  |  |  |  |  | 90.0 | IC50 (CCK-2R [1]; read-out: IC50 [nM] (n = 3), ^natGa-labeled, ^natGa-labeled): 8.24 ± 1.6 nM |
|  |  | CCCC[C@H](NC(=O)[C@H](Cc1c[nH]c2ccccc12)NC(=O)CNC(=O)[C@H](Cc1ccc(O)cc1)NC(=O)[C@H](C)NC(=O)CC[C@@H](NC(=O)CC[C@@H](NC(=O)CC[C@@H](NC(=O)CC[C@@H](NC(=O)CC[C@@H](NC(=O)CC[C@@H](NC(=O)[C@@H](CNC(=O)c1ccc([Si](F)(C(C)(C)C)C(C)(C)C)cc1)NC(=O)CCC(C(=O)O)N1CCN(CC(=O)O)CCN(CC(=O)O)CCN(CC(=O)O)CC1)C(=O)O)C(=O)O)C(=O)O)C(=O)O)C(=O)O)C(=O)O)C(=O)N[C@@H](CC(=O)O)C(=O)N[C@@H](Cc1ccccc1)C(N)=O (stereo partly shown) [DOTAGA-MG-SiFA-19, DOTAGA-dap(SiFA)-γ-F11N] |  | −2.54 ± 0.05 |  |  |  |  |  |  | specific |  |  |

— patent EP4631959A2, “NOVEL MINIGASTRIN-DERIVED CHOLECYSTOKININ 2 RECEPTOR BINDING MOLECULES FOR IMAGING AND TARGETED RADIOTHERAPY” (priority 2022, dated 2024)
